The record followed here is paper PMC12952242 (Molecular cell, 2025).

Assay [1] addresses U1–70K (SNRNP70) 1–216, recombinant (human, UniProt P08621-1 1-216). The assay can be described thus: pull-down.
Assay [2] has as its target U1 snRNP (lacking the Sm ring), reconstituted (human, UniProt P08621-1 1-216; P09012 1-282; P09234 1-159). The assay is described as follows: pull-down.

Sequence of U1 snRNP (lacking the Sm ring), reconstituted (P08621 1-216, chain 1 of 3): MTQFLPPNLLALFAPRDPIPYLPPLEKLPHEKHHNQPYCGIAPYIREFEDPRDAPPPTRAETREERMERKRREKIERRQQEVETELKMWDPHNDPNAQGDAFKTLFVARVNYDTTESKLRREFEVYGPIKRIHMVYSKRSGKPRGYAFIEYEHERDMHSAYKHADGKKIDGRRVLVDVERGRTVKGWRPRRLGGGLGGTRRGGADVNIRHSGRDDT
Sequence of U1 snRNP (lacking the Sm ring), reconstituted (P09012 whole entry, chain 2 of 3): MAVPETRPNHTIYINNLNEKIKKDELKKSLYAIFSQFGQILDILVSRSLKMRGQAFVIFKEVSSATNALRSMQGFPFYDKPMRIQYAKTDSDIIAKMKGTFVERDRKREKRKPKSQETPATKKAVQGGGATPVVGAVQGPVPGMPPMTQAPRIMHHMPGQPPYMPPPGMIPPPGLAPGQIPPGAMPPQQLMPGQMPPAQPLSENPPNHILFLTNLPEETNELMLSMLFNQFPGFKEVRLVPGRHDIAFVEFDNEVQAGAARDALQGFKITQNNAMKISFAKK
Sequence of U1 snRNP (lacking the Sm ring), reconstituted (P09234 whole entry, chain 3 of 3): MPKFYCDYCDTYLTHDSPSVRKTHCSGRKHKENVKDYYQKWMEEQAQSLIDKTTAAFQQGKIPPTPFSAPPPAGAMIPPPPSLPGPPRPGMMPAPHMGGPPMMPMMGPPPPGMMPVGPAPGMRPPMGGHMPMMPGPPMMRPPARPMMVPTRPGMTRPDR
Sequence of U1–70K (SNRNP70) 1–216, recombinant (P08621 1-216): as the sequence (P08621 1-216, chain 1 of 3) above

B1: ZNF207 1–122 (ZnF+Hel), recombinant (domain or fragment)
chain: not shown
B1: the binding result in assay [1] and in assay [2] was “binds” in each case.

B2: ZNF207 full-length, recombinant (natural protein)
chain: not shown
Take B2: the binding result in assay [2] is given as “binds”.
